Source: the DeepSol protein solubility set

Test: soluble on expression in E. coli; label from the status in PepcDB or PDB records

| Sequence | soluble on expression in E. coli |
| --- | --- |
| MGHHHHHHGGHMSLTTSTPSNRILVVMSSAAQIPLQDGKNHNTGYFLNEFGVPAKRLTDAGYELVIATPRGSVPGMDHNSDHDMFFKNKEEHNEIKAFVGDVLSNTTIQTTEAVAAEGTQAYAALFLPGGHAPMADLMADPALGEILRQFHAAAKPTALICHAPTALLAAQADPVAFQKGMEAGEQPSAQDFTYQGYRVTVFANDEEEATEKTFEAPMLYYPADALTQGGAQVENGEAMKPNVVRDRELLTGQNPFSDEPFVAQLLEMLGEGGS | soluble |
| MGHHHHHHSHAAPGAQHFLYEVPPWVMCRFYKVMDALEPADWCQFAALIVRDQTELRLCERSGQRTASVLWPWINRNARVADLVHILTHLQLLRARDIITAWHPPAPLP | not soluble |
| MGHHHHHHSHELEALSQDPRRYEEWKWFRCPTLLEVLEQFPSVALPAPLLLTQLPLLQPRYYSVSSAPSTHPGEIHLTVAVLAYRTQDGLGPLHYGVCSTWLSQLKPGDPVPCFIRGAPSFRLPPDPSLPCILVGPGTGIAPFRGFWQERLHDIESKGLQPTPMTLVFGCRCSQLDHLYRDEVQNAQQRGVFGRVLTAFSREPDNPKTYVQDILRTELAAEVHRVLCLERGHMFVCGDVTMATNVLQTVQRILATEGDMELDEAGDVIGVLRDQQRYHEDIFGLTLRTQEVTSRI | not soluble |
| MGHHHHHHSHELIREVEMGPFKHTVDDGLDIRKAAFECMYTLLDSCLDRLDIFEFLNHVEDGLKDHYDIKMLTFLMLVRLSTLCPSAVLQRLDRLVEPLRATCTTKVKANSVKQEFEKQDELKRSAMRAVAALLTIPEAEKSPLMSEFQSQISSNPELAAIFESIQKDSSSTNLESMDTS | not soluble |
| MGHHHHHHSHGPRDIISPELMADYLQPKLLGILAFFNMQLLSSSVGIEDKKMALNSLMSLMKLMGPKHVSSVRVKMMTTLRTGLRFKDDFPELCCRAWDCFVRCLDHACLGSLLSHVIVALLPLIHIQPKETAAIFHYLIIENRDAVQDFLHEIYFLPDHPELKKIKAVLQEYRKETSEST | not soluble |
| MGHHHHHHSHIPFDYIVEKTVSTGVLVDVIGALLEVGNLTEDYRGLKLPFKIMDQYKEVLQCEAHNDQALEFQRFFQRLTGPQNVIALVSWRLSGIYKLKTLSNDPISKVIANPDIPEVEEIRVVVY | not soluble |
| MGHHHHHHSHMAICQFFLQGRCRFGDRCWNEHPGARGAGGGRQQPQQQPSGNNRRGWNTTSQRYSNVIQPSSFSKSTPWGGSRDQEKPYFSSFDSGASTNRKEGFGLSENPFASLSPDEQKDEKKLLEGIVKDMEVWESSGQWMFSVYSPVKKKPNISGFTDISPEELRLEYHNFLTSNNLQSYLNSVQRLINQWRNRVNELKSLNISTKVALKCLWKIYTHLSPKIYGPDCAL | not soluble |
| MGHHHHHHSHMATGTPESQARFGQSVKGLLTEKVTTCGTDVIALTKQVLKGSRSSELLGQAARNMVLQEDAILHSEDSLRKMAIITTHLQYQQEAIQKNVEQSSDLQDQLNHLLK | not soluble |
| MGHHHHHHSHMCYNRESNFANQTIDFYCYTEYNGFMTTKGANVMTEVEMKEQVQEVLDKLRPFLLRDGGDCELVDVDEGIVKLRLLGACGSCPSSTITLKAGIERALLEEVPGVVEVEQVF | soluble |
| MGHHHHHHSHMDAIHKQKSLQFKKTMDAKKNYEQKCRDKDEAEQAVSRSANLVNPKQQEKLFVKLATSKTAVEDSDKAYMLHIGTLDKVREEWQSEHIKACEAFEAQECERINFFRNALWLHVNQLSQQCVTSDEMYEQVRKSLEMCSIQRDIEYFVNQRKTGQIPPAPIMHENFYSSQKNAVPAGKATGPNLARRGPLPIPKSSPDDPNYSLVDDYSLLYQ | not soluble |
| MGHHHHHHSHMDALEGESFALSFSSASDAEFDAVVGYLEDIIMDDEFQLLQRNFMDKYYLEFEDTEENKLIYTPIFNEYISLVEKYIEEQLLQRIPEFNMAAFTTTLQHHKDEVAGDIFDMLLTFTDFLAFKEMFLDYRAEKEGRGLDLSSGLVVTSLCKSSSLPASQNNLRH | soluble |
| MGHHHHHHSHMDEGVKEKFIGAVLGAAVGDALGKSVEDITEEEVFEFYGDRIRDFVTPHPSSPAYGQLPEETSDETTIFRLLLESLVEKKALDVRDFLNRLMEWYDREEMHRYPDPMLLTAIDLLSRGINPSTHGLTSFSVEGILRSVALGLYHYYNPELAAEGSKVVSLLTHRSDVISDASAILGALIAHLVRGDFYLEDFREKLRLIETLKDYAKEEKHKKILDRVAELLMESADLETAINTLGNGTFAFEAFPLALYIFLSNVENPEEALFQAVNSYGEFGGDTDAIGFLVGAMLGAYYGEEAIPYHLRENVENSQKLRELAERLYEVVEKQVGFSQ | soluble |
| MGHHHHHHSHMDQEMRVKRLESEKQELQEQLDLQHKKCQEANQKIQELQASQEARADHEQQIKDLEQKLSLQEQDAAIVKNMKSELVRLPRLERELKQLREESAHLREMRETNGLLQEELEGLQRKLGRQEKMQETLVGLELENERLLAKLQSWERLDQTMGLSIRTPEDLSRFVVELQQRELALKDKNSAVTSSARGLEKARQQLQEELRQVSGQLLEERKKRETHEALARRLQKRVLLLTKERDGMRAILGSYDSELTPAEYSPQLTRRMREAEDMVQKVHSHSAEMEAQLSQALEELGGQKQRADMLEMELKMLKSQS | soluble |
| MGHHHHHHSHMERFVVTAPPARNRSKTALYVTPLDRVTEFGGELHEDGGKLFCTSCNVVLNHVRKSAISDHLKSKTHTKRKAEFEEQNVRKKQRPLTASLQCNSTAQTEKVSVIQDFVKMCLEANIPLEKADHPAVRAFLSRHVKNGGSIPKSDQLRRTYLPDGYENENQLLNSQDC | soluble |
| MGHHHHHHSHMEWKVKIRSDGTRYITKRPVRDRILKERALKIKEERSGMTTDDDTMSEMKMGRYWSKEERKQHLVRAKEQRRRREFMMRSRLECLKESPQSGSEGKKEINIIELSHKKMMKKRNKKILDNWMTIQELMTHGAKSPDGTRVHNAFLSVTTV | not soluble |
| MGHHHHHHSHMFFKQFYDKHLSQASYLIGCQKTGEAMIIDPIRDLSSYIRVADEEGLTITHAAETHIHADFASGIRDVAIKLNASIYVSGESDDTLGYKNMPNQTHFVQHNDDIYVGNIKLKVLHTPGHTPESISFLLTDEGAGAQVPMGLFSGDFIFVGDIGRPDLLEKAVKVEGSSEIGAKQMFKSIESIKDLPNYIQIWPGHGAGSPCGKSLGAIPTSTLGYEKQTNWAFSENNEATFIDKLISDQPAPPHHFAQMKKINQFGMNLYQPYTVYPATNTNRLTFDLRSKEAYHGGHIEGTINIPYDKNFINQIGWYLNYDQEINLIGEYHLVSKATHTLQLIGYDDVAGYQLPQSKIQTRSIHSEDITGNESHILDVRNDNEWNNGHLSQAVHVPHGKLLETDLPFNRNDVIYVHCQSGIRSSIAIGILEHKGYHNIINVNEGYKDIHLS | not soluble |
| MGHHHHHHSHMFPCQHCERKFTTKQGLERHMHIHISTVNHAFKCKYCGKAFGTQINRRRHERRHEAGLKRKPSQ | soluble |
| MGHHHHHHSHMGTNDEDELSLGLPTELKRKKEQLDGGHRPSKETQSAAGLTLPLNSDQTFHLMSNLAGDVITAAVTAAIKDQLEGVQQALSQAAPIPEEDTDTEEGDDFELLDQSELDQIESELGLTQDQEAEAQQNKKSSGFLSNLLGGH | soluble |
| MGHHHHHHSHMHDSANCELPLLTPCSKAVMSQALKATFSGFKKEQRRLGIPKNPWLWSEQQVCQWLLWATNEFSLVNVNLQRFGMNGQMLCNLGKERFLELAPDFVGDILWEHLEQMIKENQEKTE | not soluble |
| MGHHHHHHSHMKYYRRALYDKFVHFYLVISDDGSSEAQLRGKMGGLVRKARKKISPDWPKEEQIHQLLQLFYGDWGFHCDPEDYFYARNLYLPYVFEHRQGMPVTLGAMVFYLAEALDLPIYPVNFPTQLILRAEVRDEVAFIDPWDGTYISQEKLQQLYEGAFGFGAKIQPEELDRADLSLLYSRFEQLAKNALIREEHNDMAYHYIKNLMITDAENPYHIRDRGLVLAQMGAYPSALKDLEFFVEHCPKDPTAAFIRTQLLELKGEINKDTFPLH | soluble |
| MGHHHHHHSHMLFSRIFMAGAPKFIKQLLLDLRNEIYCTILIVGDFNAPLTALDRSSRQKVHKETMGLHCILEQMDLTYIYRTFHPTTAEYTLFSSAHGTFFKIDHIIGHENKSQ | not soluble |
| MGHHHHHHSHMNGFSTEEDSREGPPAAPAAAAPGYGQSCCLIEDGERCVRPAGNASFSKRVQKSISQKKLKLDIDKSVRHLYICDFHKNFIQSVRNKRKRKTSDDGGDSPEHDTDIPEVDLFQLQVNTLRRYKRHYKLQTRPGFNKAQLAETVSRHFRNIPVNEKETLAYFIYMVKSNKSRLDQKSEGGKQLE | soluble |
| MGHHHHHHSHMPKVKRSRKAPPDGWELIEPTLDELDQKMREAETEPHEGKRKVESLWPIFRIHHQKTRYIFDLFYKRKAISRELYEYCIKEGYADKNLIAKWKKQGYENLCCLRCIQTRDTNFGTNCICRVPKSKLEVGRIIECTHCGCRGCSG | soluble |
| MGHHHHHHSHMQNADDFIKFLELEQHVEGGFYRSSYRSETAFDPSRQLWSSIYFLLRTGEVSHFHRLTADEMWYFHAGQSLTIYMISPEGELTTAQLGLDLAAGERPQFLVPKGCIFGSAMNQDGFSLVGCMVSPGFTFDDFELFSQEALLAMYPQHKAVVQKLSRPEVN | soluble |
| MGHHHHHHSHMREPWLFGEEHTRLIREAIRERYGLLPYWYSLFYHAHVASQPVMRPLWVEFPDELKTFDMEDEYMLGSALLVHPVTEPKATTVDVFLPGSNEVWYDYKTFAHWEGGCTVKIPVALDTIPVFQRGGSVIPIKTTV | soluble |
| MGHHHHHHSHMRVFIIHLSPKTCQNFSLKETHITPLLESLKLQGISYEIFDAIYSKISPTQLHPLILEHLHPSFMVEDLWAFCKNKKHPPCALKNFFYAIKHCGKRMGFGELGCYASHYSLWQKCIELNEAICILEDDIIIKDRFKESLEFCRHHINELGYIRLMHLEENVAKQKTPVKGVSQILNFKDGIGTQGYVLAPKAAQKLLKYSAKEWVMPIDCVMDRHYWHGVKNYVLEEFAIACDGMNAQNSNTEKQRPKKLPLSIRIGRSLHKSTIKFLDKVFRYSPKLIRIGKH | soluble |
| MGHHHHHHSHMSDWEDDDFEPEVSTFKRAEPAPEPVKIVDAPPPPQKAAPAAPKTLKAAPTFAMESLGRELTSAEKEAIQKKNDLALARDLFGDDDSAEATDEAKTYANIMSKADFEYWGERVGGFLASRSKASCYGDMIGKLLTSVTDEMTPAEILKMVTFLQQISAAKKTAEKTKAKATTAAKPAAAANKKNAKATLKVTKGNDSMYDDYGDDQDDYDDY | soluble |
| MGHHHHHHSHMSEETATSDNDNSYARVRAVVMTRDDSSGGWLPLGGSGLSSVTVFKVPHQEENGCADFFIRGERLRDKMVVLECMLKKDLIYNKVTPTFHHWKIDDKKFGLTFQSPADARAFDRGIRRAIEDISQGCPESK | soluble |
| MGHHHHHHSHMSGTEEAILGGRDSHPAAGGGSVLCFGQCQYTAEEYQAIQKALRQRLGPEYISSRMAGGGQKVCYIEGHRVINLANEMFGYNGWAHSITQQNVDFVDLNNGKFYVGVCAFVRVQLKDGSYHEDVGYGVSEGLKSKALSLEKARKEAVTDGLKRALRLPLLGVSGRILYSLFSVHSVMCAGGLPTPTASAQTAPSSPCSSAVLRYAQEFWECTWKLYSGQRLPEITK | not soluble |
